We go through three molecules from patent publication US8217140B2, “Peptides capable of binding to serum proteins and compounds, constructs and polypeptides comprising the same” (Ablynx N.V., priority 2008, dated 2012).

The target of data set [1] is Cynomolgus monkey serum albumin (Macaca fascicularis, UniProt A2V9Z4). In words: Surface plasmon resonance (BIAcore 3000) of MycHis tagged 2D3-Expedite fusions, Example 10. In kind it is binding. Conditions: for ka / koff (dissociation rate constant): Cynomolgus monkey serum albumin; for ka: chip ~3000 RU. How it is done:
(§1) The binding of the resulting 2D3-9GS-56E4-MycHis, 2D3-9GS-59C2-MycHis, 2D3-9GS-59F2-MycHis and 2D3-9GS-59H12-MycHis fusion proteins to human and cynomolgus serum albumin (HSA and CSA respectively) was determined using surface plasmon resonance analysis. For this purpose, binding to HSA and CSA was assessed in BIAcore™ 3000, by injecting concentration series of the fusion proteins ranging from 2 μM to 200 nM on a CM5 chip coated with ˜3000 RU HSA or CSA. Coating of the chip (CM5) was performed by amine coupling using NHS/EDC for activation and ethanolamine for deactivation (Biacore amine coupling kit). HBS-EP was used as flow buffer at a rate of 45 μl min-1. 90 μl of sample was injected for 120 s.
(Surface plasmon resonance follows binding to a sensor surface in real time, without labels.)

Data set [2] deals with human serum albumin (Homo sapiens, UniProt P02768). Described as above. In kind it is binding. The conditions noted are these: for ka / dissociation rate constant (koff): Human serum albumin; for ka: chip ~3000 RU. On the procedure:
as §1

The conditions of data set [3]: cynomolgus monkey, in vivo. On the procedure:
The pharmacokinetic profile of the constructs was analyzed in male cynomolgus monkeys of approximately 3 to 4 years old and was compared to the reference (SEQ ID NO:165). The constructs and the control were each injected in three monkeys at a dose of 2 mg/kg via an intravenous bolus injection. Blood samples were taken at predose, 5 min, 20 min, 1 h, 2 h, 4 h, 8 h (test day 1) after administration and at test days 2, 3, 5, 7, 9, 12, 15, 18, 21, 24, 27, 30, 33. In order to obtain at least 1 mL plasma per animal per sampling time, a sufficient volume of whole blood was withdrawn per sampling time. Plasma was collected after whole blood centrifugation for 30 minutes at 2200 g at room temperature (RT). The plasma samples were stored at −80° C. until analysis.
For bioanalytical determination of constructs and control article in monkey plasma, plasma samples were tested for levels of constructs and the control using ELISA based PK assays. The detection of control and constructs in the ELISA assays is based on the binding of these Nanobodies with vWF and the assay set-ups are as such that total vWF-binding Nanobody is detected.
For the reference (SEQ ID NO:165) and the construct of SEQ ID NO:167, 96-well microtiter plates (Maxisorp, Nunc, Wiesbaden, Germany) were coated overnight at 4° C. with neutravidin (Pierce) in 10:10 buffer at 3 μg/ml. Wells were aspirated and blocked for 1 hour at RT with PBS/1% casein. After this blocking step, wells were washed with PBS/0.05% Tween20. A biotinylated bivalent Nanobody against the constructs was added to the neutravidin coated plate at 2 μg/ml in PBS/0.1% casein and incubated for 1 hour at RT. After the incubation step of this capture tool, wells were washed 3 times with PBS/0.05% Tween20.
Preparations of the standards, QC samples and dilutions of the test samples were performed in a non-coated (polypropylene) plate. For the standard curve and QC-samples, solutions at the required concentrations were prepared in PBS/0.1% casein and spiked into 100% monkey plasma. To prepare standards and QC samples, a 1/100 dilution of the pure monkey plasma dilutions was made in IgM-Reducing Agent (Immunochemistry Technologies, Bloomington, USA) supplemented with 2.5% pooled human plasma (referred to as sample diluent). For the test samples, dilution factors for the test samples were estimated, and ranged between 1/100 to 1/9000 for the reference of SEQ ID NO:165 tests and between 1/100 and 12000 for the construct of SEQ ID NO: 167. Samples were diluted 1/100 in sample diluent in a first step, and if needed, further dilution was done in sample diluent supplemented with 1% cynomolgus plasma.
Standards, QC samples and diluted test samples were transferred onto the coated plate and incubated for 1 hour at RT. Afterwards the plates were washed followed by a complexation step with purified vWF (ZLB Behring). vWF diluted to 2.5 μg/ml for the assay for the reference of SEQ ID NO:165 and to 3 μg/ml for the assay for the construct of SEQ ID NO: 167 in PBS/0.1% casein was incubated on the plates for 30 minutes at RT. Plates were washed and Nanobody/vWF complexes bound to the capture tool detected with Rabbit anti-human vWF Ab (Dako, Denmark), diluted 1/2000 in PBS/0.1% casein and incubated for 30 minutes at RT. After washing, a 1/15000 dilution in PBS/0.1% casein of Horse-Radish-Peroxidase labelled goat anti-rabbit Ab (Dako, Denmark) was added to the plate and incubated for 30 minutes at RT. The enzyme coupled to the Ab catalyzes a chemical reaction with the substrate sTMB (3,3′,5,5′-tetramethylbenzidine, SDT reagents, Brussels, Belgium), resulting in a colorimetric change. After stopping this reaction after 10 minutes using HC1 (1N), the intensity of the colour was measured using a spectrophotometer at 450 nm. […]

In data set [4] the test system is VWF. In words: Pharmacodynamic profile: ristocetin cofactor activity assay (% RICO) after i.v. administration. In kind it is in vivo, Cynomolgus monkey. On the procedure:
For the constructs used in Example 14, pharmacodynamic characteristics upon compound administration were measured by means of a ristocetin cofactor activity assay (Biopool). The ristocetin cofactor activity is a functional assay for VWF, measuring the capacity of VWF to interact with the platelet receptor glycoprotein Ib using ristocetin as a modulator.
For pharmacodynamic data analysis, descriptive statistics (mean and SD) were calculated per dose group and per sampling time point using Microsoft Excel 2007. Response parameters and associated statistics for the overall time course were calculated by noncompartmental analysis of the response-time data using WinNonlin Pro 5.1 (Pharsight Corporation, USA; 2006). The non-compartmental analysis was based on a model for pharmacodynamic data (Model 220). The threshold value was set at 20% based on extensive historical PK/PD data on the vWF-0001 compound. Preclinical studies have shown that a complete inhibition of the pharmacodynamic marker are correlated with full antithrombotic efficacy. The following main pharmacodynamic parameters were determined: time below the threshold (Time below T), area under the threshold (AUC below T), time at which the % RICO first drops below the threshold (Tonset), and time at which the % RICO first returns back above the threshold (Toffset).

The subject of data set [5] is platelet adhesion to fibrillar collagen. In words: Perfusion experiments: platelet adhesion to collagen at arterial shear rate. In kind it is cell-based, human. On the procedure:
The perfusion experiments were performed with a single-pass perfusion chamber under non-pulsatile flow conditions using a modified small perfusion chamber with a slit height of 0.1 mm and a slit width of 2 mm. […] Citrated human blood was preincubated at 37° C. for 5 min with or without addition of test compound, and then perfused through the chamber for 5 min at a wall shear rate of 1600 s^−1 using an infusion/withdrawal pump (pump 22, model 2400-004, Harvard Apparatus, Holliston, Mass.). After the perfusion run, the coverslips were rinsed in Hepes buffered saline (10 mM Hepes, 150 mM NaCl, pH 7.4) and platelets were fixed with 5% glutaraldehyde and stained with May-Grünwald and Giemsa. Platelet deposition of the coverslip was evaluated as platelet surface coverage of 10 randomly chosen pictures using light microscopy (Olympus BX61 microscope using Analysis Five digital imaging solutions analysis software).

Where [6] appears, read: threshold 20% RICO, i.v. bolus 2 mg/kg, male Cynomolgus monkey, mean n = 3.

Numbering of substitutions follows the chain as printed.

Cynomolgus monkey serum albumin, sequence (A2V9Z4 25-608): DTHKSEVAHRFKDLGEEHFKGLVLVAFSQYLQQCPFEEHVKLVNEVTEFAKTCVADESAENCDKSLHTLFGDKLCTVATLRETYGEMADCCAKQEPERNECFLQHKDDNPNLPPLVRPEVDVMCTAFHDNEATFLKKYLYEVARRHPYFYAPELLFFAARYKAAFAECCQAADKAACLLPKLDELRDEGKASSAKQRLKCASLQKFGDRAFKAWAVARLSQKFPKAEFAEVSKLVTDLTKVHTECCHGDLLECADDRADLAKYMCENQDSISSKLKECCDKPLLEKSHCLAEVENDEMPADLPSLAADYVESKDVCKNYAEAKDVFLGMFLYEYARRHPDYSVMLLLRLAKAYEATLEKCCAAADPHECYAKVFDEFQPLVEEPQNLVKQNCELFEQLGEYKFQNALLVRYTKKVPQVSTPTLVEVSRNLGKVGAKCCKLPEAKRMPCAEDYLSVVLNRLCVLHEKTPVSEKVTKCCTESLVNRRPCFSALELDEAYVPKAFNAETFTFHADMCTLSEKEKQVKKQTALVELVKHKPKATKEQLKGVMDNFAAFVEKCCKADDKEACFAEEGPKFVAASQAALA

B1: 2D3-9GS-59H12-MycHis: SEQ ID NO: 161 (protein)
chain: EVQLVESGGSLVQPGGSLRLSCAASGFTFDDYAMSWVRQVPGKGLEWVSSINWSGTHTDYADSVKGRFTISRNNANNTLYLQMNSLKSEDTAVYYCAKNWRDAGTTWFEKSGSAGQGTQVTVSSGGGGSGGGSAAARSWDFDVFGGGTPVGGAAAEQKLISEEDLNGAAHHHHHH
modifications: Myc-His tag
Consider B1, for which, in data set [1], the ka is 3.45E+03 1/ms and the “koff (dissociation rate constant)” value worked out at 0.00441 s⁻¹. The “binding to CSA compared to 2D3-9GS-56E4-MycHis” value in data set [1] (FIG. 8B) was “improved binding”. Further, the “binding to HSA compared to 2D3-9GS-56E4-MycHis” value in data set [2] (FIG. 8A) is “improved binding”. Moreover, in data set [2], the ka is 4.59E+03 1/ms and the “dissociation rate constant (koff)” value amounted to 0.00304 s⁻¹.

B2: 2D3-9GS-56E4-MycHis: SEQ ID NO: 158 (protein)
chain: B1 chain with S138Y, F141Y
modifications: Myc-His tag
On to B2, for which, in data set [1], the ka was 4.01E+03 1/ms and the “koff (dissociation rate constant)” value came to 0.00845 s⁻¹. In data set [2], the ka was 5.02E+03 1/ms and the “dissociation rate constant (koff)” value worked out at 0.00497 s⁻¹.

B3: 12A2_sv1-AAA-12A2_sv1-9GS-59C2-9GS-59C2 (protein)
chain: DVQLVESGGGLVQPGGSLRLSCAASGRTFSYNPMGWFRQAPGKGRELVAAISRTGGSTYYPESVEGRFTISRDNAKRTVYLQMNSLRAEDTAVYYCAAAGVRAEQGRVRTLPSEYTFWGQGTQVTVSSAAAEVQLVESGGGLVQPGGSLRLSCAASGRTFSYNPMGWFRQAPGKGRELVAAISRTGGSTYYPESVEGRFTISRDNAKRTVYLQMNSLRAEDTAVYYCAAAGVRAEQGRVRTLPSEYTFWGQGTQVTVSSGGGGSGGGSRDWDFDVFGGGTPVGGGGGGSGGGSRDWDFDVFGGGTPVGG
In the case of B3, in data set [3], the “Vdss lower relative to vWF0001” value is 19 fold, the “dominant half-life (t½ dominant) increase relative to vWF0001” value stood at 158 fold and the “mean CL decrease compared to the control” value turned out to be 67 fold. In data set [3] (iv, 2 mg/kg), this molecule came in with an AUCinf of 4140 µg·h/mL and a C0 of 69.4 µg/mL. For the same molecule, in data set [4] (estimated, i.v. application), the “Tonset values” is ~5 min. For the same molecule, in data set [4] (i.v. bolus), the “mean AUC under the threshold increase relative to vWF0001” value was found to be 259 fold and the “time below the threshold increase relative to vWF0001” value was 167 fold. For the same molecule, in data set [4] (setting [6]), the “AUC below T” value stood at 1709 % RICO * h and the “Time below T” value came out at 202 h. In addition, the Tonset in data set [4] (time % RICO first drops below threshold, i.v. bolus 2 mg/kg) was determined as 0.079 h. The molecule also displayed a Toffset in data set [4] (time % RICO first returns above threshold, i.v. bolus 2 mg/kg) of 202 h. In addition, in data set [5] (FIG. 12), the “Effective concentration compared to VWF0001” value is given as “similar”. Moreover, the “inhibition of platelet adhesion to fibrillar collagen at arterial shear rate” value in data set [5] (citrated human blood, wall shear rate 1600 s^−1, FIG. 12) is “dose-dependently and completely inhibit”.
